{"source": "paper PMC8586017", "about": "“CENP-V is required for proper chromosome segregation through interaction with spindle microtubules in mouse oocytes” (Nature Communications, 2021)", "molecular_target": "taxol-stabilised ATTO 647N-labelled microtubules (UniProt P02550 1-451, ATTO 647N label (which chain and residues not stated) | ATTO 647N label (which chain and residues not stated))", "experiment": "TIRF microscopy, saturation binding curve; CENP-V-eGFP titrated onto surface-bound taxol-stabilised ATTO 647N-labelled microtubules; BRB80 (80 mM PIPES pH 6.8, 1 mM MgCl2, 1 mM EGTA) with 10 µM taxol, casein, DTT; 25 °C, 15 m equilibration; GFP intensity per micrometer of at least 100 microtubules per condition; Hill (cooperative) fit", "conditions": "both partners purified"}
{"binder": "His6-CENP-V-eGFP (natural protein, UniProt Q9CXS4 1-252, looked up, CENP-V (centromere protein V); also called CENP-V-GFP; recombinant CENP-V-eGFP) MRRTRSAVATGPREQRRSGATGGLSGGESRAQRSRSRTRAGAGGGGGAVGPQPSAKPRPKPPPRAQEAAAEEPPPAVTPAASVSALDLGEQRERWETFQKRQRLSFEGAAKLLLDTFEYQGLVKHTGGCHCGAVRFEVWASADLHIFDCNCSICKKKQNRHFIVPASRFKLLKGAESITTYTFNTHKAQHTFCKRCGVQSFYTPRSNPGGFGIAPHCLDEGTVRSVVTEEFNGSDWERAMKEHKTIKNMSKE", "values": [{"measurement": "Kd", "result": "53.2 ± 4.5", "unit": "nM"}]}
